The DeepSol protein solubility set

Assay: soluble on expression in E. coli; label from the status in PepcDB or PDB records

Row | Sequence | soluble on expression in E. coli
1 | MGSDKIHHHHHHMAERLGILVGGGPAPGINSVISSVTIEAINNGLEVIGIYDGFKHLVEGKTNMVKKLSIEDVSRIHIEGGSILRTSRVNPAKSEETLEKTVQTLKKLGIKYLVTIGGDDTAFSASKVCERSKGEIKVVHVPKTIDNDLPLPENMPTFGFETARHVATELVYNLMQDSRTTNRWYFVAMMGREAGHLALGVGKAASATITIIPEEFKEGVTLEEVCDVLDGAILKRKLMGRDDGVAVIGEGIAEKMDPEELANIPGVIVEKDPHGHLRLAEIPLATILKRAIERRYAERGERIHIVDVTIGYELRSARPIPFDIVYTRTLGYGAVRFLLGDYSDLPGGMVCVVGGRIKILPFDAFMDPKTGRTKVRVVDVRSEDYRVARKYMIRLEKKDLEDPETLEKLAKLAKMEPEEFKKKYWHTTELP | not soluble
2 | MGSDKIHHHHHHMSELLAIPLKRTLEVDFATELSKLIDTTSFQTASFFQSDILKVVDARNNAIAPDISIDGLSALKEYYVILLQLEKKFPNNQIEFTWFQTLSQKSRGTSQYSLQWEKLTIIYNIGCMYSLLALNSNNDAAESLKTSCLYFQNAAGCFKHVLDHQKNLETIPVVDDATLNALTSLMLAQAQECFWFKAVQDKHKDSLIAKLSQQIVDFYCEAINDAQRGKLIRSDWINHLKAKKAYFSAVTYYRIALSFNEKKQFGNVVKALQMGLQFINESTLSSQAKFKTVVESSLKEAQRDNEFIYLQEVPSELPSIKPALMVKPSSSATLLPSIKKDETLFKDLIPIEVMEYCTAYNERQDEYVEQRVTNPLASLNKLLKESLTTFQIPQGLTKVSEAELSHYQASLNNLLINNKNVQVQLDNIEQILNEEAFTDNQLRLKHGTLNWTLPESSTTNTAYYEKLKKLRGYLDEGSAIDKQTNELFQSIDKNLIGSEIRLPESNDPLTNKIKMIIQERNDYIDRTRRKSSEYRILPKIITSYKKNGTVDFEPIFIGHLKYFDEDLRYVNSTKEENIKLIEEVNLSKKNNPGRSGIEPKKMVRIDPRELYIEDLRYSFKLLDEVKENLSAGTAFYENLITSTSNLYNEVQEYDTARRAEKARLDKSLTFEDQ | not soluble
3 | MSMQHESPIKRRPSTRIYVGDVPIGDGAPIAVQSMTNTRTTDVAATVAQIKSLEKVGADIVRVSVPTMEAAEAFKLIKQQVSVPLVADIHFDYRIALKVAEYGVDCLRINPGNIGNEARIRSVVDCARDKGIPIRIGVNGGSLEKDLQLKYGEPTPEALVESAMRHVDILDRLNFDQFKVSVKASDVFLAVDSYRLLAKKIDQPLHLGITEAGGARAGSVKSAVGLGMLLAEGIGDTLRISLAADPVEEIKVGFDILKSLRIRSRGINFIACPSCSRQEFDVIGTVNALEQRLEDVLTPMDVSIIGCVVNGPGEAEVSHLGLAGSNKKSAFYEDGVRQKERFDNDDLVAQLEAKIRAKAARLDEKNRIDIKHVEQD | not soluble
4 | MASMTGGQQMGRGSMQNPSVTISVNANAGRHPINPAVYGLAYATTATLADLNVPLHRYGGNNTSRYNWQLNADNRGADWYFESIGEASSVAGERGDTFIANSQAAGAQAMITIPTIGWVARLGANRSKLASFSIAKYGAQSGNDWQWFPDAGNGVLTSGQNVTGNNPNDANTLVDSTFQQGWAQHLVSQWGTAAGGGLRYYILDNEPSIWFSTHRDVHPVGPTMDEIRDKMLDYGAKIKTVDPSALIVGPEEWGWSGYTLSGYDQQYGGLHGWSFMPDRNNHGGWDYLPWLLDQLRQNNLSTGRRLLDVFSVHYYPQGGEFGNDTSSAMQLRRNRSTRSLWDPNYIDETWINDKVQLIPRLKNWVSTYYPGTLTAITEYNWGAESHINGATTQADILGIFGREGLDMAARWTTPDTATPTYKAIKMYRNYDGNKSAFGDTSVTATAPNPDNVSAFAAVRSSDGALTVMVINKYLSGNTPATINLSNFTAQAQAQVWQLTAANTINHLSNVSLSGSSLSLTLPAQSVTLLVIPAST | soluble
5 | MGSDKIHHHHHHMTRKRAKTHSVKKAPLFVLTSSPNPKRTTSNKSAGIWSYWTRRTAYAMSTHIIPRLQKVIDGEDQGGISKAVNWQGGGGFRYFRLAPTLIVNDKWGNQIINPDYNPEMLAEALAKLEGLPDFSWILELGSGFAFVGRQYRLEVNGDEFFIDLLFYHIRLKCYVVVELKAAAFKPEHAGQLNFYLAAVDAQVKAPDDNPTIGLLLCKTQNRLVAEYALSDIDKPIGIAEYELVRALPEPLVTNLPTVEQLESELSDWQEDGEFFGV | not soluble
6 | HSLFPIPRMGDSAAKIVSPQEALPGRKEPLVVAAKHHVNGNRTVEPFPEGTQMAVFGMGCFWGAERKFWTLKGVYSTQVGFAGGYTPNPTYKEVCSGKTGHAEVVRVVFQPEHISFEELLKVFWENHDPTQGMRQGNDHGSQYRSAIYPTSAEHVGAALKSKEDYQKVLSEHGFGLITTDIREGQTFYYAEDYHQQYLSKDPDGYCGLGGTGVSCPL | soluble
7 | MGSDKIHHHHHHMARHGKGPKTNKKKLAPEKERFIQCCADITLELTDSLTSGTTREINLNGLITKYSKKYKLKQQPRLTDIINSIPDQYKKYLLPKLKAKPVRTASGIAVVAVMCKPHRCPHIAYTGNICVYCPGGPDSDFEYSTQSYTGYEPTSMRAIRARYDPYEQARGRVEQLKQLGHSIDKVEYVLMGGTFMSLPKEYREDFIVKLHNALSGFNGNDIDEAILYSQQSLTKCVGITIETRPDYCTQTHLDDMLKYGCTRLEIGVQSLYEDVARDTNRGHTVRSVCETFAVSKDAGYKVVSHMMPDLPNVGMERDIEQFKEYFENPDFRTDGLKIYPTLVIRGTGLYELWKTGRYKSYSANALVDLVARILALVPPWTRIYRVQRDIPMPLVTSGVDNGNLRELALARMKDLGTTCRDVRTREVGIQEVHHKVQPDQVELIRRDYYANGGWETFLSYEDPKKDILIGLLRLRKASKKYTYRKEFTSQRTSIVRELHVYGSVVPLHSRDPRKFQHQGFGTLLMEEAERIAKEEHGSEKISVISGVGVRNYYGKLGYELDGPYMSKRI | not soluble
8 | MGSDKIHHHHHHMEHPENNEEYKGLVVNKGIEQPSSVNPYLKRKPKKRQLSVAEFVEGIVKGDVTILSQAVTLVESVKPEHQAVAQEVIEKCLPYSGNSIRVGISGVPGAGKSTSIDVFGLHVLEKGGKLAVLAIDPSSERSKGSILGDKTRMEQLSVHPQSFIRPSPSAGSLGGVARKTRETIVLCEAAGFDKIFVETVGVGQSETAVHSMVDFFLLIQLAGTGDELQGIKRGIMEMADGIVINKADGDNLEPAKLAASQFRNALHLFPAPESGWIPKVLTYSGFYNIGVKEIWDMVYEYIDFVKKNGYFDYRRNEQSKYWMYETINEQLRDSFYHNPRIEAMLQEKEQQVLQGNLTSFIAAKSLLDTYFDELKR | not soluble
9 | MQLEDYTAATNIAKKDFMPGTTKIDRALTGQVAGLQVKRSSGMPGEGSYYNLRGIRTLTGDNAPLIVINGVPHMPDKTPSALIDGFTRDIFQFYHLQDIQNITILKGAEAAMYGSMGSNGVILIETDGTASN | not soluble
10 | MSNQKLSDGGACCSPLAREPLTEDWAGDLARMFKALGDPVRLRLLSLIASHAGGEACVCDISESFDLSQPTISHHLKVLRAAGLLDCERRGTWVYYWVIPSALQQLSAVLLTESGTAVPSPTCAEARA | not soluble
11 | MSLRQIRTVIQYQTVRYDILPLSPVSRNRLAQVKRKILVLDLDETLIHSHHDGVLRPTVRPGTPPDFILKVVIDKHPVRFFVHKRPHVDFFLEVVSQWYELVVFTASMEIYGSAVADKLDNSRSILKRRYYRQHCTLELGSYIKDLSVVHSDLSSIVILDNSPGAYRSHPDNAIPIKSWFSDPSDTALLNLLPMLDALRFTADVRSVLSRNLHQHRLWEGHHHHHH | not soluble
12 | MGSDKIHHHHHHMNREFYGKIIISGEIEAVTGLHIGSQREVSEIGGIDNPVIKDPHTGLPYIPGSSLKGRLRSLFEIYVNTRLDELKSKYSSLSNYSKGSCRDVGKENCGKFFNKKLNNVWIHVCSTYEMARNCPVCRLYGSSGKESNFPSRLIVRDAFLTEEWKKKWENGEAITEAKIEVGIDRVTSQANPRTTERVVAGTRFDFEIIYTIEDLKEWKDDLRNLLTSMLLLEDSYLGGSGSRGYGKVRFHVKGLELRPLEYYRTGDEGKIVKKTEYERVEDLLKNFETITSEFDRRVGGIEG | not soluble
13 | MSEIKLNYHKTHFLTSAPNIRSIPEDTGIEIAFAGRSNAGKSTALNALTNQKNLARTSKTPGRTQLINLFEVEPNCKLVDLPGYGYAAVPEQMKIQWQKSLGEYLQKRECLAGLVVLMDIRHPLKDLDQQMIEWAVSANLPVLLLLTKADKLSQSARSKQVKMVREAILPFQGDIQVEAFSAQNKIGIDKLAVKLDFWFSPLFAE | not soluble
14 | MHHHHHHGKPIPNPLLGLDSTENLYFQGIDPFTDVAAPSPAAAAEPGPAARPRSTRGQVRLPGGEFAMGDAFGEGYPADGETPVHTVRLRPFHIDETAVTNARFAAFVKATGHVTDAERFGSSAVFHLVVAAPDADVLGSAAGAPWWINVRGAHWRRPEGARSDITGRPNHPVVHVSWNDATAYARWAGKRLPTEAEWEYAARGGLAGRRYAWGDELTPGGRWRCNIWQGRFPHVNTAEDGHLSTAPVKSYRPNGHGLWNTAGNVWEWCSDWFSPTYYAESPTVDPHGPGTGAARVLRGGSYLCHDSYCNRYRVAARSSNTPDSSSGNLGFRCANDADLTSGSAAE | soluble
15 | MSLKYFEFTFHTSPCTETVNDVLAAVLGEAGFESFVESEGGLTAYIQQALCDENTIKNAITEFPLPDTEITYTYVEAEDKDWNEEWEKNFFQPIVIDNRCVIHSTFHKDVPQATYDIVINPQMAFGTGHHETTSLIIGELLDNELKDKSLLDMGCGTSILAILARMRGARPCIAIDIDEWCVRNSIENIELNHVDDIAVSQGDASSLVGKGPFDIIIANINRNILLNDMKQYVACMHPGSELYMSGFYVDDIPFIRREAEKNGLTFVHHKEKNRWAAVKFTYEGHHHHHH | soluble
16 | MRLLTCDCTFMGQKHSGSVSVEKKNQENDGPPTYEIVFGWSQSFENLMKHRAGQKYFAEFLKGEYSDENILFWQACEELKREKNAEKIEEKARIIYEDFISILSPKEVSLDSRVREIVNTNMGRPSASTFDEAQNQIYTLMQRDSYPRFLASNIYKTVMGTFGIKEEAV | not soluble
17 | MNNIGVPAREVDVVVTGAGQAGLSSAFHLRRTGFEPERDFVVLDHAPRPGGAWQFRWPSLTYRKVHGMHALPGMELTDADPSRPSSEVIAEYFDTYERTFDLRVRRPVDVTAVREGEGGRLLVQTSDGTWATRALINATGTWDRPFWPRYPGQESFRGRQLHTAQYPGPEEFAGQRVVVVGGGASGTQHLMEIAPYAASTTWVTRRPPVFREGPFSEDVGRAAVAMVEERVRRGLPPRSVVSVTGLPLNDAVRRAIADGVLDRLPVFDRITPDGVEWDDGRRVAADVILWATGFRAAIDHLAPLRLRAPGGGIRVEGTRVVADPRIHLVGYGPSASTIGANRAGRAAVRDIRRLLAGEPLTVLEHHHHHH | soluble
18 | MSLTNTNAVELVKEAIDRGAEIILVKVDSKKYVKMSLELVKHFTEFAEGIFVTLNRPYFSLKKMLLKEGVDISKLYFIDCITLQLGGQVIDEERCFYLTSPDPVQLQVTIERAMDLVTVNNRFIYLDSLSTISLYKSFETLVKFLRHLTGKMRLRGFVGTIFTIEKEMDESYYSQISLMVDEVIEVDEGHHHHHH | soluble
19 | MTVPIAIIGTGIAGLSAAQALTAAGHQVHLFDKSRGSGGRMSSKRSDAGALDMGAQYFTARDRRFATAVKQWQAQGHVAEWTPLLYNFHAGRLSPSPDEQVRWVGKPGMSAITRAMRGDMPVSFSCRITEVFRGEEHWNLLDAEGQNHGPFSHVIIATPAPQASTLLAAAPKLASVVAGVKMDPTWAVALAFETPLQTPMQGCFVQDSPLDWLARNRSKPERDDTLDTWILHATSQWSRQNLDASREQVIEHLHGAFAELIDCTMPAPVFSLAHRWLYARPAGAHEWGALSDADLGIYVCGDWCLSGRVEGAWLSGQEAARRLLEHLQLEHHHHHH | soluble
